Source: PMC11939848, “Aptamer-Based Graphene Field-Effect Transistor Biosensor for Cytokine Detection in Undiluted Physiological Media for Cervical Carcinoma Diagnosis”

Key:
IL-6 [1] = biological target: T1, IL-6 (UniProt P05231 30-212); assay: graphene FET (Hill-Langmuir fit); 1000 Da PEG, PBS; 1x PBS, artificial sweat (10x diluted or undiluted) or undiluted lavage fluid; aptamer immobilized on graphene; pH and temperature not stated; details: protein: commercial
IL-6 [2] = biological target: T1, IL-6; assay: graphene FET (Hill-Langmuir fit); 2000 Da PEG, PBS; 1x PBS, artificial sweat (10x diluted or undiluted) or undiluted lavage fluid; aptamer immobilized on graphene; pH and temperature not stated; details: protein: commercial
IL-6 [3] = biological target: T1, IL-6; assay: graphene FET (Hill-Langmuir fit); 1000 Da PEG, undiluted lavage fluid; 1x PBS, artificial sweat (10x diluted or undiluted) or undiluted lavage fluid; aptamer immobilized on graphene; pH and temperature not stated; details: protein: commercial
IL-6 [4] = biological target: T1, IL-6; assay: graphene FET (Hill-Langmuir fit); 2000 Da PEG, undiluted lavage fluid; 1x PBS, artificial sweat (10x diluted or undiluted) or undiluted lavage fluid; aptamer immobilized on graphene; pH and temperature not stated; details: protein: commercial
TNF-alpha [5] = biological target: T2, TNF-alpha (UniProt P01375 77-233); assay: graphene FET (Hill-Langmuir fit); no PEG, 1x PBS; 1x PBS, artificial sweat (10x diluted or undiluted) or undiluted lavage fluid; aptamer immobilized on graphene; pH and temperature not stated; details: protein: commercial; chain copies: 3; G-quadruplex, two G-tetrads
TNF-alpha [6] = biological target: T2, TNF-alpha; assay: graphene FET (Hill-Langmuir fit); 1000 Da PEG, 1x PBS; 1x PBS, artificial sweat (10x diluted or undiluted) or undiluted lavage fluid; aptamer immobilized on graphene; pH and temperature not stated; details: protein: commercial; chain copies: 3; G-quadruplex, two G-tetrads
TNF-alpha [7] = biological target: T2, TNF-alpha; assay: graphene FET (Hill-Langmuir fit); 2000 Da PEG, 1x PBS; 1x PBS, artificial sweat (10x diluted or undiluted) or undiluted lavage fluid; aptamer immobilized on graphene; pH and temperature not stated; details: protein: commercial; chain copies: 3; G-quadruplex, two G-tetrads

T2 sequence (P01375 77-233): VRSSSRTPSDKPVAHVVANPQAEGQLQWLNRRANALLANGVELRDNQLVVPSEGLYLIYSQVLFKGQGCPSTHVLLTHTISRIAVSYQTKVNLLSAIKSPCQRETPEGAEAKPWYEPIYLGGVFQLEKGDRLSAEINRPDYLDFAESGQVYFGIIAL
T1 sequence (P05231 30-212): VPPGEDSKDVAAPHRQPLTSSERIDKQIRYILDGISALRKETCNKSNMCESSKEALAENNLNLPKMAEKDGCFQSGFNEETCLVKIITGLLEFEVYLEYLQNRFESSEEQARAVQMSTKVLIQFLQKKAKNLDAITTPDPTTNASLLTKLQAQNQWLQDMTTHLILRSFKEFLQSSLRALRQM

Binder	Kd (IL-6 [1])	Kd (IL-6 [2])	Kd (IL-6 [3])	Kd (IL-6 [4])	Kd (TNF-alpha [5])	Kd (TNF-alpha [6])	Kd (TNF-alpha [7])
GGTGGCAGGAGGACTATTTATTTGCTTTTCT (ssDNA, 5'-NH2) [IL-6 aptamer]	0.084 ± 0.023 nM	0.188 ± 0.052 nM	0.57 ± 0.096 nM	0.194 ± 0.023 nM			
TGGTGGATGGCGCAGTCGGCGACAA (ssDNA, 5'-NH2) [TNF-alpha aptamer]					2.82 ± 0.19 nM	1.52 ± 0.35 nM	1.21 ± 0.44 nM
